Source: article PMC10341432, “Cross-Linking Mass Spectrometry on P-Glycoprotein” (International Journal of Molecular Sciences, 2023)

Legend:
[1] = target: T1, P-glycoprotein (human) on NIH 3T3 MDR1 cells after PNGase F treatment (Homo sapiens, UniProt P08183, all N-linked oligosaccharides removed from ECL1 by PNGase F); experiment: flow cytometry on cells; living NIH 3T3 MDR1 cells treated with 0, 50, 100 or 200 U/mL PNGase F; 10 µg/mL 15D3 or UIC2 for 30 min at 37 °C in glucose-PBS; Alexa-488 anti-mouse goat secondary antibody; conditions: one partner purified
T1 construct: P-glycoprotein (MDR1, ABCB1), human; N-glycans of ECL1 removed on living cells; also called Pgp; deglycosylated Pgp; source: NIH 3T3 MDR1 mouse fibroblasts, human Mdr1 gene-transduced; living cells treated with PNGase F (50, 100 or 200 U/mL)

[2] = target: T2, P-glycoprotein (human), as expressed on NIH 3T3 MDR1 cells (human, UniProt P08183, N-glycans on ECL1); experiment: as above; conditions: one partner purified
T2 construct: P-glycoprotein (MDR1, ABCB1), human; integral membrane protein on the cell surface; Cell line a gift from M. Gottesman; also called Pgp; multi-drug resistance protein 1; source: NIH 3T3 MDR1 mouse fibroblasts, human Mdr1 gene-transduced, stably expressing; on living cells and in membrane preparation (Mem-PER Plus kit)
T2 sequence (P08183 whole entry): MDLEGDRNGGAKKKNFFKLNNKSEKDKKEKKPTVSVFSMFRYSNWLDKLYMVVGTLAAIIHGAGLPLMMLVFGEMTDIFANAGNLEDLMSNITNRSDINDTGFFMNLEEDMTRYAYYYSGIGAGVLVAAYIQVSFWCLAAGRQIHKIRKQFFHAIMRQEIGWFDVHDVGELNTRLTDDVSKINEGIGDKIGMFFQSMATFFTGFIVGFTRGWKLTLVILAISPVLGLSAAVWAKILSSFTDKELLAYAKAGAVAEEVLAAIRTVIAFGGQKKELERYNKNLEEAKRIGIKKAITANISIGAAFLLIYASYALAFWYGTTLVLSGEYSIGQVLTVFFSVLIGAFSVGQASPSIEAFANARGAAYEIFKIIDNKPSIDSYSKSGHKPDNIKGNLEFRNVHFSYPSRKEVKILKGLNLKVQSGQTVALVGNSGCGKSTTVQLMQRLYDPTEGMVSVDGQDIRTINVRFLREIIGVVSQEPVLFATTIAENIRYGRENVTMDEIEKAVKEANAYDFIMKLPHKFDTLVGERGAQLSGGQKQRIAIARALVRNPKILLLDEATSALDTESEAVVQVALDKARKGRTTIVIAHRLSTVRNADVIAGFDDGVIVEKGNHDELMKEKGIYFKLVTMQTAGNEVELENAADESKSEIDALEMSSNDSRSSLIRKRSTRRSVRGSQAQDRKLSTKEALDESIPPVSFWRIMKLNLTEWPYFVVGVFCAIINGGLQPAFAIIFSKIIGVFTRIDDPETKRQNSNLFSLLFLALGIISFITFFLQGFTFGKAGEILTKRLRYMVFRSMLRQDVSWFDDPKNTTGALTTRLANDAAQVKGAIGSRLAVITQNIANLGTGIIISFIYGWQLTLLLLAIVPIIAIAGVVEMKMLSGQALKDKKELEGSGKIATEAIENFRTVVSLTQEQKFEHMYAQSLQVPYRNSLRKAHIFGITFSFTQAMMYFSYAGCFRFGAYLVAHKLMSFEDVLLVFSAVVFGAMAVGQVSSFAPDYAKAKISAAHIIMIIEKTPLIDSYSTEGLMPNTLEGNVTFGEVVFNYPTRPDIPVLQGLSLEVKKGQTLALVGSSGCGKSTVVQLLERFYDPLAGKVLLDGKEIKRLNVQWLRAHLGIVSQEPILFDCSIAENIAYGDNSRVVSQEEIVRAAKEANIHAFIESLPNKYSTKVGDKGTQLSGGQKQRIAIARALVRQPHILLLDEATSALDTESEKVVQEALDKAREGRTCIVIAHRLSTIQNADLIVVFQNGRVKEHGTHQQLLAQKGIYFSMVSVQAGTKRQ

T1 sequence (P08183 whole entry): as above

binding result [1]: binds
binding result [2]: binds
B1: 15D3 mouse monoclonal anti-Pgp antibody (antibody, V domains shown)
VH: EVKVVESGGVLVRPGGSLKLSCAASGFTFSRYTMSWVRQTPEKRLEWVATISSGGGNTYYPDSVKGRFTVSRDNAMSSLYLQMSSLRSEDTALYYCARYGAGDAWFAYWGQGTLVTVSA
VL: ELAMTQTPLSLPVSLGDQASISCRSSQSIVHSTGNTYLEWYLQKPGQSPKLLIYKVSNRFSGVPDRFSGSGSGTDFTLKISRLEAEDLGVYYCFQGSHFPRTFGGGTRLEIK
notes: mouse IgG1 constant part; IgG1; also called 15D3 mAb; source: hybridoma (ATCC HB-11342) supernatant or mouse ascites, purified (Protein G)
